According to patent US20140349871A1 (University of Washington, published 2014):

Biological target: T1, prohibitin-2 (PHB2) (human, UniProt Q99623 2-299)
T1 construct: whole, on cells; also called BAP37
Assay: in vivo PIR (BDP-NHP) cross-linking of intact HeLa cells, ReACT LC-MS3

T1 sequence (Q99623 2-299): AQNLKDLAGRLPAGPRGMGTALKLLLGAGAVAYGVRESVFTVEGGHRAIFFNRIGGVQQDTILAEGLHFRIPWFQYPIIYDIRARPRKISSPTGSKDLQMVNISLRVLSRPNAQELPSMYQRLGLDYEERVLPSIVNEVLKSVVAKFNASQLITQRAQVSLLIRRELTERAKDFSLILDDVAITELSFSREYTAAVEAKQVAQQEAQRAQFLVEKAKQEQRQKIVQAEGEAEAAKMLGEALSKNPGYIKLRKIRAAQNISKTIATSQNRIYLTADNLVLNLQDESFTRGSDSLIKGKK

binding result: binds
B1: prohibitin (PHB) (other, human, UniProt P35232 2-272, looked up)
chain: AAKVFESIGKFGLALAVAGGVVNSALYNVDAGHRAVIFDRFRGVQDIVVGEGTHFLIPWVQKPIIFDCRSRPRNVPVITGSKDLQNVNITLRILFRPVASQLPRIFTSIGEDYDERVLPSITTEILKSVVARFDAGELITQRELVSRQVSDDLTERAATFGLILDDVSLTHLTFGKEFTEAVEAKQVAQQEAERARFVVEKAEQQKKAAIISAEGDSKAAELIANSLATAGDGLIELRKLEAAEDIAYQLSRSRNITYLPAGQSVLLQLPQ
notes: whole, on cells; also called prohibitin 1; BAP32
